The text below walks through data of the supplement of paper PMC9170038.

This data set relates to MS2 coat protein. The data set is described as follows: apparent KD of MS2 coat protein; designed switch direction (-1 OFF switch, 1 ON switch): 1; higher = weaker reporter binding. The procedure, abridged: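 For each design, the apparent KD is the median over clusters of curves fitted to normalised cluster fluorescence. Clusters held RNA switches with common flanks, transcribed on Illumina chips by stalled E. coli RNA polymerase. These were titrated with SNAP-549-labelled MS2 coat protein, doubling from 0.7 or 1.5 nM to 3 µM, without input, with 200 uM small-molecule ligand, or with an oligonucleotide input.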

Where [1] appears, read: input ligand: microRNA oligo, concentration not stated.
[2] abbreviates: Eterna round: R95, input ligand: FMN 200 uM.
The mark [3] stands for this setting: Eterna round: R95, input ligand: microRNA oligo, concentration not stated.
[4] abbreviates: Eterna round: R95, input ligand: none.

Take “AAAAAACAUGAGGAUCACCCAUGUGAAAAUAUGGGAGGAUAUACAAACACGAAAGUGAAAGUAGAAGGCCUAAAAA [SS! MT 16] (Eterna round: R96, puzzle: Same State 1)”: the “apparent KD of MS2 coat protein” value is 17.2 nM (input ligand: FMN 200 uM), 95.4 nM under setting [1] and 127 nM (input ligand: none).

Take “AAAACAUGACGAGGAUAUGGAACAUGAGGAUCACCCAUGUAUGUUCCAUAACGCGAAUGACGAAUCCAGAAGGCGUCGUGAAAA [Mat - Same State NG 2 - JL mod - D27] (Eterna round: R96, puzzle: Same State NG 2)”: the “apparent KD of MS2 coat protein” value reads like this: (input ligand: FMN 200 uM) 25.1 nM; under setting [1], 181 nM; (input ligand: none) 272 nM.

Take “AAAAGAAACACAGGAUAUACCGCAAUUAACACGGUAGAAGGGUGGGACAUGAGGAUCACCCAUGUGACCUGAACACCAGGUCGC [Enrien] (Eterna round: R96, puzzle: Same State NG 1)”: the “apparent KD of MS2 coat protein” value reads like this: (input ligand: FMN 200 uM) 369 nM; under setting [1], 17.9 nM; (input ligand: none) 105 nM.

Turning to “AAAAGAAACAUGUACCUGAGUACAUGAAAACAUGAGGAUCACCCAUGUAAUAAGUGGGUGUUUUGUCUUUGUCUUAU [JL pocket 34, mod 5] (Eterna round: R96, puzzle: Sensor for hsa-mir-208a)”, the “apparent KD of MS2 coat protein” value (input ligand: FMN 200 uM) was 50.8 nM, the “apparent KD of MS2 coat protein” value under setting [1] is 119 nM and the “apparent KD of MS2 coat protein” value (input ligand: none) turned out to be 51.8 nM.

“AAAAGAAGAAUGUAGGAUAUACAAAAGAACACAUGAGGAUCACCCAUGUGAGCCUAAUGUAAGAAGUAGAAGGACAAAGAGAAAA [Default title] (puzzle: Same State 2)”: the “apparent KD of MS2 coat protein” value reads like this: under setting [2], 91.3 nM; under setting [3], 62 nM; under setting [4], 67.3 nM.

As to “AAAAGACAAAGAAAACAUGAGGAUCACCCAUGUGGCGUGACACAGGAUAUCCACGCUACAUUGCAGGAGAAGGGUGACAUGCAC [Ensora] (Eterna round: R96, puzzle: Same State NG 3)”, the “apparent KD of MS2 coat protein” value (input ligand: FMN 200 uM) was determined as 484 nM, the “apparent KD of MS2 coat protein” value under setting [1] is 273 nM and the “apparent KD of MS2 coat protein” value (input ligand: none) was determined as 383 nM.

With “AAAAUAAAUGCGAAAAUUAACCGCAACUGACAUGAGGAUCACCCAUGUGCUUCAAGCUCAGGCAUCUCUUAUCGUCA [Maares] (Eterna round: R96, puzzle: Sensor for hsa-mir-208a)”, the “apparent KD of MS2 coat protein” value runs as follows: (input ligand: FMN 200 uM) 112 nM; under setting [1], 67.9 nM; (input ligand: none) 105 nM.

As for “AAAAUACAUGAGGAUCACCCAUGUCUAAAGAACGGAGGAUAUAGGCGUGCAAAACACGCACUAGAAGGCUGGGUGC [Eserus] (puzzle: Same State 1)”, the “apparent KD of MS2 coat protein” value is, setting by setting: under setting [2], 144 nM; under setting [3], 92.3 nM; under setting [4], 220 nM.

On to “AAAAUGGUAUGUUACAUGAGGAUCACCCAUGUACCGUAAUCUGAGGAUAUGGUGAUGUAGAAGAAUCAGAAGGCAGACAUUUAA [AK SSNG3-V2-24.2] (Eterna round: R96, puzzle: Same State NG 3)”, for which the “apparent KD of MS2 coat protein” value is, setting by setting: (input ligand: FMN 200 uM) 19.2 nM; under setting [1], 26.7 nM; (input ligand: none) 36.1 nM.

For the sequence “AAACACAUGAGGAUCACCCAUGUAGCGCCAUUAAAGCGCACAUAGGAUAUCCGGUCCUAAAGACCGGAGAAGGGUGAAAGAAAA [Zara] (Eterna round: R96, puzzle: Same State NG 3)”, the “apparent KD of MS2 coat protein” value was 54.8 nM (input ligand: FMN 200 uM), 76.2 nM under setting [1] and 121 nM (input ligand: none).

For “AAACAUGAGCGAGGAUAUACGGAGGAUCACCCUGUAGAAGGCGCAUGUAAAACAACAUGAGGAUCACCCAUGUCAUGUACAUGA (Eterna round: R96, puzzle: Same State NG 1)”, the “apparent KD of MS2 coat protein” value amounted to 24.8 nM (input ligand: FMN 200 uM), 23.4 nM under setting [1] and 33.6 nM (input ligand: none).

Consider “AAACGCAGCAUAUCGCUGCGACAUGAGGAUCACCCAUGUACACAGGAUAUCGCGGCAUACCGCCACGAGAAGGGUGAUCAAGAC [Vebixeriso] (Eterna round: R96, puzzle: Same State NG 3)”, for which the “apparent KD of MS2 coat protein” value by setting is: (input ligand: FMN 200 uM) 676 nM; under setting [1], 82.9 nM; (input ligand: none) 45.2 nM.

In the case of “AAACGGUCGCUGCGGCGGCCACAUGAGGAUCACCCAUGUACAUAGGAUAUCGCCUAAAAUACUGGCGAGAAGGGUGAUUAAAGA [Ergegeti] (Eterna round: R96, puzzle: Same State NG 3)”, the “apparent KD of MS2 coat protein” value is, setting by setting: (input ligand: FMN 200 uM) 132 nM; under setting [1], 36.2 nM; (input ligand: none) 79.4 nM.

Take “AAACUAGGCGGUCCAACAUGAGGAUCACCCAUGUAAAAUUCAUAGGAUAUGCCUAUAGAAACAAGGCAGAAGGGUGAGACCGCA [Atsoorle] (Eterna round: R96, puzzle: Same State NG 3)”: the “apparent KD of MS2 coat protein” value is 68.6 nM (input ligand: FMN 200 uM), 93.7 nM under setting [1] and 134 nM (input ligand: none).

For the sequence “AAAGGAUGAUGUUACAUGAGGAUCACCCAUGUUGUGAUAACUAAGGAUAUGUGUUAAACCAGUUAAUAGAAGGUAGGAUCAUAA [AK SSNG3-V2-5] (Eterna round: R96, puzzle: Same State NG 3)”, the “apparent KD of MS2 coat protein” value runs as follows: (input ligand: FMN 200 uM) 182 nM; under setting [1], 77.1 nM; (input ligand: none) 112 nM.

As for “AACAAUCUAUCUCAGGAUAUCAUGUCAAAGACAUGAGGAUCACCCAUGUACCAGGAAACUGGUUAUGAGAAGGGAGAUAGAUUGG [Mat - Same State 2 - Mod - D28] (puzzle: Same State 2)”, the “apparent KD of MS2 coat protein” value under setting [2] amounted to 161 nM, the “apparent KD of MS2 coat protein” value under setting [3] was 438 nM and the “apparent KD of MS2 coat protein” value under setting [4] turned out to be 197 nM.

Consider “AACAAUCUAUCUGAGGAUAUCAUGAAAUAAACAUGAGGAUCACCCAUGUGCAGGAAAACUGCAUAUGAGAAGGUAGAUAGAUUGA [salish99_ss2_r3_050] (puzzle: Same State 2)”, for which the “apparent KD of MS2 coat protein” value by setting is: under setting [2], 176 nM; under setting [3], 140 nM; under setting [4], 218 nM.

As for “AACAAUCUAUCUGAGGAUAUCAUGAAAUAAACAUGAGGAUCACCCAUGUGCAGGAAAACUGCAUAUUAGAAGGCAGAUAGAUUGA [salish99_ss2_r3_049] (puzzle: Same State 2)”, the “apparent KD of MS2 coat protein” value under setting [2] amounted to 163 nM, the “apparent KD of MS2 coat protein” value under setting [3] is 38.8 nM and the “apparent KD of MS2 coat protein” value under setting [4] came out at 151 nM.

Regarding “AACAAUCUAUCUGAGGAUAUCAUGAAAUAAACAUGAGGAUCACCCAUGUGCAGGAAAACUUCAUAUGAGAAGGCAGAUAGAUUGA [salish99_ss2_r3_045] (puzzle: Same State 2)”, the “apparent KD of MS2 coat protein” value under setting [2] came out at 17.5 nM, the “apparent KD of MS2 coat protein” value under setting [3] is 27.7 nM and the “apparent KD of MS2 coat protein” value under setting [4] is 26.4 nM.

“AACAAUCUAUCUGAGGAUAUCAUGAGAAGAACAUGAGGAUCACCCAUGUGCAGGAAAACUGCAUAUGAGAAGGCAGAUAGAUUGG [Mat - Same State 2 - Mod - D18] (puzzle: Same State 2)”: the “apparent KD of MS2 coat protein” value under setting [2] came to 52.8 nM, the “apparent KD of MS2 coat protein” value under setting [3] is 621 nM and the “apparent KD of MS2 coat protein” value under setting [4] came out at 1950 nM.
